Entries after “also recorded” stand apart in the source; their conditions may differ.
Key:
P. furiosus cultures = experiment: Stability of 3-HP added to P. furiosus cultures; type: cell-based, Pyrococcus furiosus
[1] = 4-hydroxybutyrate-CoA synthetase assay (DTNB; HPLC confirmation); type: biochemical
Experimental: A time point (0 min) was taken before heating.
The soluble, heat-treated lysate was loaded onto the column with binding buffer (50 mM sodium phosphate, 300 mM NaCl, 20 mM imidazole, pH 7.4) and the his-tagged enzyme removed with elution buffer (50 mM sodium phosphate, 300 mM NaCl, 500 mM imidazole, pH 7.4).

[2] = CoA synthetase assay, substrate hexanoic acid; type: biochemical; conditions: six carbon hexanoic acid
Experimental: (§1) Two assays were used to measure ligase activity, one spectrophotometric and one using high-performance liquid chromatography (HPLC). A discontinuous assay was used to measure substrate-dependent disappearance of CoA at 75° C. The reaction mixture (600 μl) contained 100 mM MOPS-KOH (pH 7.9), 5 mM MgCl2, 2.5 mM ATP, 0.15 mM CoA, and purified enzyme. At each time point, 80 μl of reaction mixture was added to 80 μl cold 5,5′-dithiobis-(2-nitrobenzoic acid) (DTNB). A time point (0 min) was taken before heating. The reaction mixture was incubated for 2 min at 75° C., followed by addition of substrate. Additional time points were taken at 30, 60, 90, 120, and 180 sec after addition of substrate. Absorbance was measured at 412 nm to determine free CoA concentration, based on the concentration of 2-nitro-5-thiobenzoate dianion (NTB^2−) (ε412=14,150 M^−1 cm^−1) (Hawkins et al., 2011, ACS Catal. 1, 1043-1050, Riddles et al., 1983, Methods in Enzymology 91, 49-60). Enzymes were kinetically characterized by varying the concentration of the […] substrate from 0.05 mM to 12 mM, while the other substrate concentrations were held constant. Measurements for specific activity were taken under saturating substrate concentrations (10 mM). Formation of the CoA ester was also confirmed using HPLC (Waters). […]

E9 = molecular target: T1, E9 (Metallosphaera sedula, UniProt A4YGN0); experiment: NADPH-dependent assay for E9 in cell-free extracts; type: biochemical
T1 construct: expressed in transfected cells; host or cells: Pyrococcus furiosus strain MW43 (SP2B operon integrated at genome region 2); cell-free extract
T1 sequence (A4YGN0 1-360): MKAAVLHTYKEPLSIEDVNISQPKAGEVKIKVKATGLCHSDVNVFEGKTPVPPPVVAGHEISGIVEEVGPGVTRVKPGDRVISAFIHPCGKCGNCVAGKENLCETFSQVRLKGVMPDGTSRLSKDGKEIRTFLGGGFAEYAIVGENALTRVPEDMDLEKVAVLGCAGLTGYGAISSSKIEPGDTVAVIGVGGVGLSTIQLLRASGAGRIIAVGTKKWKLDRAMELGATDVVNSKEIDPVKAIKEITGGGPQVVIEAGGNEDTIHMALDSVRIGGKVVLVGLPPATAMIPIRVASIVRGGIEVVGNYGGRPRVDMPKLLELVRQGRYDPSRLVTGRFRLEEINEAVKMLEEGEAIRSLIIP
Experimental: NADPH-dependent assay for E9 of the SP2B subpathway (FIG. 36). Assays were carried out in sealed anaerobic cuvettes at 75° C. containing 100 mM MOPS pH 7.5 (measured at room temperature), 5 mM MgCl2, 5 mM DTT, 1 mM NADPH and the cell-free extract of P. furiosus (0.25 mg/ml). After addition of 1 mM succinic semialdehyde, NADPH oxidation was determined by the absorbance at 340 nm and rates were calculated based on the difference before and after the addition of the succinic semialdehyde.

[3] = CoA synthetase (acyl-CoA ligase) assay, disappearance of CoA (DTNB), substrate acetate; type: biochemical; conditions: saturating substrate concentrations
Experimental: (§2) Two assays were used to measure ligase activity, one spectrophotometric and one using high-performance liquid chromatography (HPLC). A discontinuous assay was used to measure substrate-dependent disappearance of CoA at 75° C. The reaction mixture (600 μl) contained 100 mM MOPS-KOH (pH 7.9), 5 mM MgCl2, 2.5 mM ATP, 0.15 mM CoA, and purified enzyme. At each time point, 80 μl of reaction mixture was added to 80 μl cold 5,5′-dithiobis-(2-nitrobenzoic acid) (DTNB). A time point (0 min) was taken before heating. The reaction mixture was incubated for 2 min at 75° C., followed by addition of substrate. Additional time points were taken at 30, 60, 90, 120, and 180 sec after addition of substrate. Absorbance was measured at 412 nm to determine free CoA concentration, based on the concentration of 2-nitro-5-thiobenzoate dianion (NTB^2−) (ε412=14,150 M^−1 cm^−1) (Hawkins et al., 2011, ACS Catal. 1, 1043-1050, Riddles et al., 1983, Methods in Enzymology 91, 49-60). Enzymes were kinetically characterized by varying the concentration of the acyl-CoA substrate from 0.05 mM to 12 mM, while the other substrate concentrations were held constant. Measurements for specific activity were taken under saturating substrate concentrations (10 mM). Formation of the CoA ester was also confirmed using HPLC (Waters). […]

[4] = CoA synthetase assay (DTNB), substrate propionate; type: biochemical; conditions: saturating substrate concentrations
Experimental: as §2

[5] = Ligase activity over a range of short-chain linear organic acids; type: biochemical
Experimental: as §1

Molecule: O=C(O)CCO [3-HP, 3-hydroxypropionic acid]
- stability when added to P. furiosus cultures (P. furiosus cultures): stable

B1: Msed_0394: recombinant M. sedula enzyme with 4-hydroxybutyrate:CoA ligase activity, annotated AMP-dependent synthetase and ligase, SEQ ID NO:13 (protein, listed as Metallosphaera sedula)
chain: MGGFKIPNYEGVDPTGSWYSVLTPLLFLERAGKYFKDKTAVVYRDSRYTYSTFYDNVMVQASALMRRGFSREDKLSFISRNRPEFLESFFGVPYAGGVLVPINFRLSPKEMAYIINHSDSKFVVVDEPYLNSLLEVKDQIKAEIILLEDPDNPSASETARKEVRMTYRELVKGGSRDPLPIPAKEEYSMITLYYTSGTTGLPKGVMHHHRGAFLNAMAEVLEHQMDLNSVYLWTLPMFHAASWGFSWATVAVGATNVCLDKVDYPLIYRLVEKERVTHMCAAPTVYVNLADYMKRNNLKFSNRVHMLVAGAAPAPATLKAMQEIGGYMCHVYGLTETYGPHSICEWRREWDSLPLEEQAKLKARQGIPYVSFEMDVFDANGKPVPWDGKTIGEVVMRGHNVALGYYKNPEKTAESFRDGWFHSGDAAVVHPDGYIEIVDRFKDLINTGGEKVSSILVEKTLMEIPGVKAVAVYGTPDEKWGEVVTARIELQEGVKLTEEEVIKFCKERLAHFECPKIVEFGPIPMTATGKMQKYVLRNEAKAKANKEKS
- production of 4HB-CoA from 4HB and CoA ([1]; reversed-phase HPLC): confirmed
- rate of ligation of CoA to 4HB ([1]; substrate 4HB): 0.22 µmol·min/mg
- activity with hexanoic acid [2]: No activity

B2: E9: M. sedula succinate semialdehyde reductase, SEQ ID NO:12, in extracts of strain MW43 (protein, listed as Metallosphaera sedula)
chain: T1 sequence (A4YGN0 1-360)
- half-life of E9 (E9; at 90° C, cell-free extracts): ~30 min
- assay temperature of maximum E9 activity (E9; cell extracts): above 80 °C

B3: Msed_1353-G424: single substitution mutant (Trp424 to Gly) of acetate/propionate synthetase Msed_1353, SEQ ID NO:18 (protein, listed as Metallosphaera sedula)
chain: MSQPENESGLPFQEKVVPELLKHRLVTPEEYLRIHKKTVENYQEYWESVAKELDWFKPWEKALDDSHPPFYKWFVGGELNASYLAVDRHANSWRRNKVAIIWEGEPWENGPKEVRKLTYLDLYREVNRAAYLLKEVYGLKKGDTIGIYLPMIPELPIFMLAAARLGVAFTVVFSGFSAQAVADRMNDADTKLLITADGGWRRGKVIPLKEIVDKALETATTVKNVLVVRRTGTEISMKPGRDAYLHDVMSKVPIKAYVEPERVKSEDPLYILYTSGTTGKPKGIIHDTGGYMTLLHNTMKLVFDIRDTDVFWCTADIGWVTGHSYIVFGPLQEGATEVMYEGALDFPEPDRWVSIIERHQVSILYTSPTAIRTFMKQGEQWIKKHDVSSVRLMHSVGEPINPEAWRWFHKLVGRGQVPFGSTWGMTETGGIMISHMPGGYLVPMKPGTNGPPLLGIETNVFDEEGKPMPEEQKGYLVITKPWPGMPLTINKDPERYVKVYWNKFPNVFYAGDYAIKDRDGYFWILGRADEVMKIAGHRIGTYELESALVQHPAIAEAAVVGVPDPVRGEVAEAFVILRSGVEPSAKLREEIVKFVRENFGPIAVFREIHFVSKLPKTRSGKIMRRVIKAVATNSPVGDVTTLEDEASVEEVKKAFQELKEQVGK
- specific activity [3]: 3.6 µmol/min/mg
- specific activity [4]: 3.5 µmol/min/mg
- specific activity ([1]; 4HB, saturating substrate concentrations): 1.8 µmol/min/mg
- substrates on which activity was shown [5]: activity on C4-C8 substrates; also recorded: activity on 3HP, 4HB, valerate, hexanoate, and even octanoate
- decrease of activity of mutant versus native enzyme ([5]; on acetate and propionate): 60%
